T1: human IL-18BP (human, UniProt O95998 31-194)
T1 construct: UniProt printed as 095998; also called hIL-18BP
T1 sequence: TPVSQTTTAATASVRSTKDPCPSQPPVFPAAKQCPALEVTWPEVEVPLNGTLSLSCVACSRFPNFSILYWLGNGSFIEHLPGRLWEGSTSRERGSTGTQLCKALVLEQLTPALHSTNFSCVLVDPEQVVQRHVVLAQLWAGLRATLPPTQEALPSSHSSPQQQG

B1: SA301a HC-G55F (antibody, name in Kabat numbering, V domains shown)
VH: QVQLQESGPGLVKPSQTLSLTCTVSGYSITSDYNSHWIRQPPGKGLEWIGYIHYSFSTNYNPSLKSRVTISRDTSKNQFSLKLSSVTAADTAVYYCARNYGSIYVNYFDYWGQGTLVTVSS
VL: EIVLTQSPATLSLSPGERATLSCSASSSVSYMYWYQQKPGQAPRPLIYRTSNLASGIPARFSGSGSGTDFTLTISSLEPEDFAVYYCQQYHSYPTFGGGTKVEIK
notes: IgG1 kappa
B2: SA301a HC-N58E (antibody, name in Kabat numbering, V domains shown)
VH: QVQLQESGPGLVKPSQTLSLTCTVSGYSITSDYNSHWIRQPPGKGLEWIGYIHYSGSTEYNPSLKSRVTISRDTSKNQFSLKLSSVTAADTAVYYCARNYGSIYVNYFDYWGQGTLVTVSS
VL: EIVLTQSPATLSLSPGERATLSCSASSSVSYMYWYQQKPGQAPRPLIYRTSNLASGIPARFSGSGSGTDFTLTISSLEPEDFAVYYCQQYHSYPTFGGGTKVEIK
notes: IgG1 kappa
B3: SA301a HC-N58D (antibody, name in Kabat numbering, V domains shown)
VH: QVQLQESGPGLVKPSQTLSLTCTVSGYSITSDYNSHWIRQPPGKGLEWIGYIHYSGSTDYNPSLKSRVTISRDTSKNQFSLKLSSVTAADTAVYYCARNYGSIYVNYFDYWGQGTLVTVSS
VL: EIVLTQSPATLSLSPGERATLSCSASSSVSYMYWYQQKPGQAPRPLIYRTSNLASGIPARFSGSGSGTDFTLTISSLEPEDFAVYYCQQYHSYPTFGGGTKVEIK
notes: IgG1 kappa
B4: SA301a HC-G55H (antibody, name in Kabat numbering, V domains shown)
VH: QVQLQESGPGLVKPSQTLSLTCTVSGYSITSDYNSHWIRQPPGKGLEWIGYIHYSHSTNYNPSLKSRVTISRDTSKNQFSLKLSSVTAADTAVYYCARNYGSIYVNYFDYWGQGTLVTVSS
VL: EIVLTQSPATLSLSPGERATLSCSASSSVSYMYWYQQKPGQAPRPLIYRTSNLASGIPARFSGSGSGTDFTLTISSLEPEDFAVYYCQQYHSYPTFGGGTKVEIK
notes: IgG1 kappa
B5: SA301a HC-N58I (antibody, name in Kabat numbering, V domains shown)
VH: QVQLQESGPGLVKPSQTLSLTCTVSGYSITSDYNSHWIRQPPGKGLEWIGYIHYSGSTIYNPSLKSRVTISRDTSKNQFSLKLSSVTAADTAVYYCARNYGSIYVNYFDYWGQGTLVTVSS
VL: EIVLTQSPATLSLSPGERATLSCSASSSVSYMYWYQQKPGQAPRPLIYRTSNLASGIPARFSGSGSGTDFTLTISSLEPEDFAVYYCQQYHSYPTFGGGTKVEIK
notes: IgG1 kappa
B6: SA301a HC-N58H (antibody, name in Kabat numbering, V domains shown)
VH: QVQLQESGPGLVKPSQTLSLTCTVSGYSITSDYNSHWIRQPPGKGLEWIGYIHYSGSTHYNPSLKSRVTISRDTSKNQFSLKLSSVTAADTAVYYCARNYGSIYVNYFDYWGQGTLVTVSS
VL: EIVLTQSPATLSLSPGERATLSCSASSSVSYMYWYQQKPGQAPRPLIYRTSNLASGIPARFSGSGSGTDFTLTISSLEPEDFAVYYCQQYHSYPTFGGGTKVEIK
notes: IgG1 kappa
B7: SA301a HC-N58Q (antibody, name in Kabat numbering, V domains shown)
VH: QVQLQESGPGLVKPSQTLSLTCTVSGYSITSDYNSHWIRQPPGKGLEWIGYIHYSGSTQYNPSLKSRVTISRDTSKNQFSLKLSSVTAADTAVYYCARNYGSIYVNYFDYWGQGTLVTVSS
VL: EIVLTQSPATLSLSPGERATLSCSASSSVSYMYWYQQKPGQAPRPLIYRTSNLASGIPARFSGSGSGTDFTLTISSLEPEDFAVYYCQQYHSYPTFGGGTKVEIK
notes: IgG1 kappa
B8: SA301a HC-G55R (antibody, name in Kabat numbering, V domains shown)
VH: QVQLQESGPGLVKPSQTLSLTCTVSGYSITSDYNSHWIRQPPGKGLEWIGYIHYSRSTNYNPSLKSRVTISRDTSKNQFSLKLSSVTAADTAVYYCARNYGSIYVNYFDYWGQGTLVTVSS
VL: EIVLTQSPATLSLSPGERATLSCSASSSVSYMYWYQQKPGQAPRPLIYRTSNLASGIPARFSGSGSGTDFTLTISSLEPEDFAVYYCQQYHSYPTFGGGTKVEIK
notes: IgG1 kappa
B9: SA301a HC-N58K (antibody, name in Kabat numbering, V domains shown)
VH: QVQLQESGPGLVKPSQTLSLTCTVSGYSITSDYNSHWIRQPPGKGLEWIGYIHYSGSTKYNPSLKSRVTISRDTSKNQFSLKLSSVTAADTAVYYCARNYGSIYVNYFDYWGQGTLVTVSS
VL: EIVLTQSPATLSLSPGERATLSCSASSSVSYMYWYQQKPGQAPRPLIYRTSNLASGIPARFSGSGSGTDFTLTISSLEPEDFAVYYCQQYHSYPTFGGGTKVEIK
notes: IgG1 kappa
B10: SA301a HC-G55L (antibody, name in Kabat numbering, V domains shown)
VH: QVQLQESGPGLVKPSQTLSLTCTVSGYSITSDYNSHWIRQPPGKGLEWIGYIHYSLSTNYNPSLKSRVTISRDTSKNQFSLKLSSVTAADTAVYYCARNYGSIYVNYFDYWGQGTLVTVSS
VL: EIVLTQSPATLSLSPGERATLSCSASSSVSYMYWYQQKPGQAPRPLIYRTSNLASGIPARFSGSGSGTDFTLTISSLEPEDFAVYYCQQYHSYPTFGGGTKVEIK
notes: IgG1 kappa
B11: SA301a HC-G55K (antibody, name in Kabat numbering, V domains shown)
VH: QVQLQESGPGLVKPSQTLSLTCTVSGYSITSDYNSHWIRQPPGKGLEWIGYIHYSKSTNYNPSLKSRVTISRDTSKNQFSLKLSSVTAADTAVYYCARNYGSIYVNYFDYWGQGTLVTVSS
VL: EIVLTQSPATLSLSPGERATLSCSASSSVSYMYWYQQKPGQAPRPLIYRTSNLASGIPARFSGSGSGTDFTLTISSLEPEDFAVYYCQQYHSYPTFGGGTKVEIK
notes: IgG1 kappa
B12: SA301a HC-G55S (antibody, name in Kabat numbering, V domains shown)
VH: QVQLQESGPGLVKPSQTLSLTCTVSGYSITSDYNSHWIRQPPGKGLEWIGYIHYSSSTNYNPSLKSRVTISRDTSKNQFSLKLSSVTAADTAVYYCARNYGSIYVNYFDYWGQGTLVTVSS
VL: EIVLTQSPATLSLSPGERATLSCSASSSVSYMYWYQQKPGQAPRPLIYRTSNLASGIPARFSGSGSGTDFTLTISSLEPEDFAVYYCQQYHSYPTFGGGTKVEIK
notes: IgG1 kappa
B13: SA301a HC-N58A (antibody, name in Kabat numbering, V domains shown)
VH: QVQLQESGPGLVKPSQTLSLTCTVSGYSITSDYNSHWIRQPPGKGLEWIGYIHYSGSTAYNPSLKSRVTISRDTSKNQFSLKLSSVTAADTAVYYCARNYGSIYVNYFDYWGQGTLVTVSS
VL: EIVLTQSPATLSLSPGERATLSCSASSSVSYMYWYQQKPGQAPRPLIYRTSNLASGIPARFSGSGSGTDFTLTISSLEPEDFAVYYCQQYHSYPTFGGGTKVEIK
notes: IgG1 kappa
B14: SA301a HC-G55Q (antibody, name in Kabat numbering, V domains shown)
VH: QVQLQESGPGLVKPSQTLSLTCTVSGYSITSDYNSHWIRQPPGKGLEWIGYIHYSQSTNYNPSLKSRVTISRDTSKNQFSLKLSSVTAADTAVYYCARNYGSIYVNYFDYWGQGTLVTVSS
VL: EIVLTQSPATLSLSPGERATLSCSASSSVSYMYWYQQKPGQAPRPLIYRTSNLASGIPARFSGSGSGTDFTLTISSLEPEDFAVYYCQQYHSYPTFGGGTKVEIK
notes: IgG1 kappa
B15: SA301a HC-N58G (antibody, name in Kabat numbering, V domains shown)
VH: QVQLQESGPGLVKPSQTLSLTCTVSGYSITSDYNSHWIRQPPGKGLEWIGYIHYSGSTGYNPSLKSRVTISRDTSKNQFSLKLSSVTAADTAVYYCARNYGSIYVNYFDYWGQGTLVTVSS
VL: EIVLTQSPATLSLSPGERATLSCSASSSVSYMYWYQQKPGQAPRPLIYRTSNLASGIPARFSGSGSGTDFTLTISSLEPEDFAVYYCQQYHSYPTFGGGTKVEIK
notes: IgG1 kappa
B16: SA301a HC-N58M (antibody, name in Kabat numbering, V domains shown)
VH: QVQLQESGPGLVKPSQTLSLTCTVSGYSITSDYNSHWIRQPPGKGLEWIGYIHYSGSTMYNPSLKSRVTISRDTSKNQFSLKLSSVTAADTAVYYCARNYGSIYVNYFDYWGQGTLVTVSS
VL: EIVLTQSPATLSLSPGERATLSCSASSSVSYMYWYQQKPGQAPRPLIYRTSNLASGIPARFSGSGSGTDFTLTISSLEPEDFAVYYCQQYHSYPTFGGGTKVEIK
notes: IgG1 kappa
B17: SA301a HC-G55V (antibody, name in Kabat numbering, V domains shown)
VH: QVQLQESGPGLVKPSQTLSLTCTVSGYSITSDYNSHWIRQPPGKGLEWIGYIHYSVSTNYNPSLKSRVTISRDTSKNQFSLKLSSVTAADTAVYYCARNYGSIYVNYFDYWGQGTLVTVSS
VL: EIVLTQSPATLSLSPGERATLSCSASSSVSYMYWYQQKPGQAPRPLIYRTSNLASGIPARFSGSGSGTDFTLTISSLEPEDFAVYYCQQYHSYPTFGGGTKVEIK
notes: IgG1 kappa
B18: SA301a HC-G55T (antibody, name in Kabat numbering, V domains shown)
VH: QVQLQESGPGLVKPSQTLSLTCTVSGYSITSDYNSHWIRQPPGKGLEWIGYIHYSTSTNYNPSLKSRVTISRDTSKNQFSLKLSSVTAADTAVYYCARNYGSIYVNYFDYWGQGTLVTVSS
VL: EIVLTQSPATLSLSPGERATLSCSASSSVSYMYWYQQKPGQAPRPLIYRTSNLASGIPARFSGSGSGTDFTLTISSLEPEDFAVYYCQQYHSYPTFGGGTKVEIK
notes: IgG1 kappa
B19: SA301a HC-G55Y (antibody, name in Kabat numbering, V domains shown)
VH: QVQLQESGPGLVKPSQTLSLTCTVSGYSITSDYNSHWIRQPPGKGLEWIGYIHYSYSTNYNPSLKSRVTISRDTSKNQFSLKLSSVTAADTAVYYCARNYGSIYVNYFDYWGQGTLVTVSS
VL: EIVLTQSPATLSLSPGERATLSCSASSSVSYMYWYQQKPGQAPRPLIYRTSNLASGIPARFSGSGSGTDFTLTISSLEPEDFAVYYCQQYHSYPTFGGGTKVEIK
notes: IgG1 kappa
B20: SA301a HC-N58P (antibody, name in Kabat numbering, V domains shown)
VH: QVQLQESGPGLVKPSQTLSLTCTVSGYSITSDYNSHWIRQPPGKGLEWIGYIHYSGSTPYNPSLKSRVTISRDTSKNQFSLKLSSVTAADTAVYYCARNYGSIYVNYFDYWGQGTLVTVSS
VL: EIVLTQSPATLSLSPGERATLSCSASSSVSYMYWYQQKPGQAPRPLIYRTSNLASGIPARFSGSGSGTDFTLTISSLEPEDFAVYYCQQYHSYPTFGGGTKVEIK
notes: IgG1 kappa
B21: SA301a HC-G55M (antibody, name in Kabat numbering, V domains shown)
VH: QVQLQESGPGLVKPSQTLSLTCTVSGYSITSDYNSHWIRQPPGKGLEWIGYIHYSMSTNYNPSLKSRVTISRDTSKNQFSLKLSSVTAADTAVYYCARNYGSIYVNYFDYWGQGTLVTVSS
VL: EIVLTQSPATLSLSPGERATLSCSASSSVSYMYWYQQKPGQAPRPLIYRTSNLASGIPARFSGSGSGTDFTLTISSLEPEDFAVYYCQQYHSYPTFGGGTKVEIK
notes: IgG1 kappa

The target in the assay is T1, human IL-18BP. The assay is described as follows: BLI, apparent KD.
Take B1: the Kd stood at 1.17 nM. B2: the Kd was 2.5 nM. With B3, the Kd came to 4.51 nM.

With B4, the Kd came out at 1.31 nM. The result for B5 reads 0.27 nM; that for B6, 0.31 nM; that for B7, 0.62 nM.

Turning to B8, the Kd was 0.75 nM.

Turning to B9, the Kd was found to be 0.34 nM. Regarding B10, the Kd is 1.72 nM. The result for B11 reads 1.04 nM. For B12 the value was 0.51 nM; for B13, 0.64 nM. Turning to B14, the Kd worked out at 0.79 nM.

For B15, the Kd was determined as 4.39 nM. For B16 the value was 0.23 nM. For B17 the value was 0.44 nM; for B18, 1 nM; for B19, 2.33 nM. Turning to B20, the Kd came to 0.41 nM. For B21 the value was 0.84 nM.

These data come from US20250368745A1 (published 2025).
